Measured values published in patent US12599645B2, “Antibodies which bind to lysophosphatidic acid receptor 1 (LPAR1)” (DJS ANTIBODIES LTD, priority 2021, dated 2026).

Columns and labels:
CHO-LPAR1 cells = biological target: T1, CHO-LPAR1 cells (Homo sapiens, UniProt Q92633); test: Competition CIFAT; format: binding; details: data not shown
T1 construct: expressed in transfected cells
Experimental: CHO-LPAR1 (GenScript) cells were seeded in black 96-well plates at 50,000 cells/200 μL full growth medium at and incubated for 24 hours at 37° C. The following day, the medium was removed from the wells and the cells incubated with 100 μg/mL primary antibody for 20 minutes at 37° C. After pre-incubation with the antibody, 10 μg/mL biotinylated competing antibody was added before incubation for 20 minutes at 37° C. After washing and cell fixation with 4% PFA, the binding of the antibodies was detected using an Alexa Fluor 488 streptavidin detection antibody (Molecular Probes), incubated for 45 minutes at 4° C. Fluorescence at 488 nm was measured using a BMG LABTECH ClarioStar plate reader and microscopy images were taken at 10× magnification.

[1] = tested on: renal fibrosis after UUO surgery; test: Unilateral ureteral obstruction (UUO) efficacy model of renal fibrosis; format: in vivo, Hartley guinea pigs; details: Study 2
Experimental: Unilateral ureteral obstruction (UUO) is a well-characterized disease model for renal fibrosis. The UUO model encompasses key pathophysiological features of chronic kidney disease; tubular necrosis and inflammatory cell infiltration within a relatively short period.
Two unilateral ureteral obstruction (UUO) model efficacy studies were carried out in six-week old female Hartley guinea pigs. On Day 0, UUO surgery was performed. BMS-986020 was administered orally at a dose level of 30 mg/kg in a volume of 5 mL/kg twice daily at from Day −1 to 9. Isotype control and anti-LPAR1 antibody was intraperitoneally administered at a dose level of 6 mg/kg (low) or 20 mg/kg (high) in a volume of 10 mL/kg at Day −1, Day 0, Day 3 and Day 6. The viability, clinical signs, behaviour and individual body weight was monitored daily.
The animals were sacrificed at Day 10. The ligated left kidney and right kidney weight were measured at sacrifice.
Hydroxyproline is an amino acid, making up around 14% of collagen and acts as an important indicator of the severity of fibrosis. To quantify kidney hydroxyproline content, frozen posterior right section of left kidney samples were processed by an alkaline-acid hydrolysis method. AC buffer (2.2M acetic acid/0.48M citric acid) was added to the samples, followed by centrifugation to collect the supernatant. A standard curve of hydroxyproline was constructed with serial dilutions of trans-4-hydroxy-L-proline (Sigma-Aldrich, USA) starting at 16 μg/mL. The prepared samples and standards were mixed with chloramine T solution (Nacalai Tesque Inc., Japan) and incubated for 25 minutes at room temperature. The samples were then mixed with Ehrlich's solution and heated at 65° C. for 20 minutes to develop the colour. After samples were cooled on ice and centrifuged to remove precipitates, the optical density of each supernatant was measured at 560 nm. The concentrations of hydroxyproline were calculated from the hydroxyproline standard curve. Protein concentrations of kidney samples were determined using a BCA protein assay kit (Thermo Fisher Scientific, USA) and used to normalize the calculated hydroxyproline values. Kidney hydroxyproline contents were expressed as μg per mg protein.
The left kidney was fixed in Bouin's solution and embedded in paraffin. For PAS staining, sections were cut from paraffin blocks and stained with Schiff's reagent (FUJIFILM Wako pure chemical corporation, Japan) according to the manufacturer's instructions. To visualize collagen deposition, kidney sections were stained using picro-Sirius red solution (FUJIFILM Wako pure chemical corporation). For quantification of interstitial and medulla fibrosis area, bright field images in the corticomedullary region were captured using a digital camera (DFC295) at 200-fold magnification, and the positive areas in 5 fields/section were measured using ImageJ software (National Institute of Health, USA).

[2] = parameters: species or system Sprague Dawley rats; details: rat, in vivo, iv, 3 mg/kg
Experimental: The rat pharmacokinetics study was carried out in male Sprague Dawley rats (275-325 g). Rats received an IV slow bolus (3 mg/kg) of test antibody. Blood samples were taken at the following time-points: pre-dose, 2 min, 1 hour, 3 hours, 6 hours, 24 hours, 48 hours, 96 hours, 7 days, 14 days and 21 days after dosing. For each animal and for each blood sampling, 200 μL venous blood was obtained from the sublingual vein under isoflurane anaesthesia in K2EDTA vials. The blood samples were gently mixed, placed immediately on crushed ice and centrifuged within 30 min of sampling at approximately 1500×g for approximately 10 min at approximately 4° C. For each blood sample, the resulting plasma was separated into 2 aliquots of 30 μL and transferred, using disposable plastic material, into polypropylene tubes with conical bottom and stored at −80° C. until analysis by capture ELISA. Plates were coated overnight with 1 μg/mL capture IgG before washing and blocking with 3% (w/v) milk the next morning for 2 hours. […] Absorbance was measured on a plate reader at 450 nm. Antibody concentrations were calculated using interpolation off a standard curve constructed for each individual test IgG in Prism 5 (GraphPad Software, CA, USA). Interpolated data was analysed using Phoenix WinNonlin® version 8.1 (Certara USA, Inc., Princeton, NJ) to extract relevant PK parameters. […]

[3] = Dose range-finding toxicity study, liver histopathology; format: in vivo; details: cynomolgus
Experimental: A dose range-finding study was carried out to determine the potential toxicity of Antibody 17 when given by the intravenous (infusion) route to cynomolgus monkeys. The test item, Antibody 17, was administered to 8 animals via intravenous infusion (30 minutes) on Day 1 (Group 1) or on Days 1, 8 and 15 (Groups 2 to 4). Animals were split by sex, allocated into 4 groups and dosed with Antibody 17 at 10, 33 or 100 mg/kg/day.
A complete gross pathological examination, organ weight recording and microscopic evaluation were performed on the six animals that were given 3 doses of Antibody 17 (Groups 2 to 4) two days after the third dose.

LPAR1 [4] = biological target: T2, LPAR1 (Homo sapiens, UniProt Q92633); test: Transient-transfection CIFAT, fixed/permeabilised cells; format: binding; parameters: HA; expressed in transfected cells; host or cells: CHO-K1 (transient, PEI); details: 5 μg/mL
Irrelevant GPCR = test: Transient-transfection CIFAT, irrelevant GPCR control (fixed and live cells); format: binding; details: cells expressing irrelevant GPCR
Experimental: (§1) Anti-LPAR1 antibodies of the invention were tested alongside commercially available anti-LPAR1 antibodies in the transient-transfection CIFAT assay for live cells (method 1.11) and in the transient-transfection CIFAT assay for fixed cells (method 1.11).
The results are shown in FIGS. 11 and 12, wherein the scale bar represents 100 μm.

LPAR1 [5] = biological target: T2, LPAR1; test: Transient-transfection CIFAT, live cells; format: binding; parameters: HA; expressed in transfected cells; host or cells: CHO-K1 (transient, PEI); details: 5 μg/mL or 20 μg/mL
Experimental: CHO-K1 cells are seeded in multi well plates at 20,000 cells per 200 μL full growth medium and incubated for 24 hours at 37° C. In a sterile tube, 0.0309 uL/well PEI is diluted into 10 uL/well transfection medium (DMEM supplemented with 2 mM L-glutamine and Penicillin-Streptomycin). The diluted PEI is added to 100 ng/well DNA, before mixing immediately and incubating the mixture for 10 minutes at room temperature. 200 μL/well full growth medium is added to the PEI-DNA mixture, then medium in wells is taken off and 200 ul full growth medium/PEI/DNA mixture is added in the wells of the adherent cell plate. The plate is incubated for 24 hours at 37° C. The medium is discarded and replaced with 200 μL full growth medium. The plate is incubated for 24 hours at 37° C. Medium is removed from the wells and the cells incubated with primary antibody at varying concentrations for 75 minutes at 37° C. After washing and cell fixation with 4% PFA, the binding of the antibodies is detected using a goat anti-human detection antibody, incubated for 1 hour at room temperature. Fluorescence at 488 nm is measured.
CHO-K1 cells were seeded in clear 96-well plates at 20,000 cells per 200 μL full growth medium and incubated for 24 hours at 37° C. The following day, in a sterile tube, 0.0309 uL/well PEI (Generon, MW 160,000) was diluted into 10 uL/well transfection medium (DMEM supplemented with 2 mM L-glutamine and Penicillin-Streptomycin). The diluted PEI was added to 100 ng/well DNA encoding the target protein (human LPAR1 (SEQ ID NO: 62) unless otherwise stated), before vortexing immediately and incubating the mixture for 10 minutes at room temperature. 200 μL/well full growth medium was added to the PEI-DNA mixture, then medium in wells was taken off and 200 ul full growth medium/PEI/DNA mixture was added in the wells of the adherent cell plate. The plate was incubated for 24 hours at 37° C. The next day, the medium was discarded and replaced with 200 μL full growth medium. The plate was incubated for 24 hours at 37° C. The following day, medium was removed from the wells and the cells incubated with primary antibody at varying concentrations for 75 minutes at 37° C. After washing and cell fixation with 4% PFA, the binding of the antibodies was detected using a goat anti-human Alexa Fluor 488 detection antibody (Invitrogen), incubated for 1 hour at room temperature. Fluorescence at 488 nm was measured using a BMG LABTECH ClarioStar plate reader and microscopy images were taken at 10× magnification.
as §1

[6] = IV infusion, 10, 33 or 100 mg/kg/day

T2 sequence (Q92633 whole entry): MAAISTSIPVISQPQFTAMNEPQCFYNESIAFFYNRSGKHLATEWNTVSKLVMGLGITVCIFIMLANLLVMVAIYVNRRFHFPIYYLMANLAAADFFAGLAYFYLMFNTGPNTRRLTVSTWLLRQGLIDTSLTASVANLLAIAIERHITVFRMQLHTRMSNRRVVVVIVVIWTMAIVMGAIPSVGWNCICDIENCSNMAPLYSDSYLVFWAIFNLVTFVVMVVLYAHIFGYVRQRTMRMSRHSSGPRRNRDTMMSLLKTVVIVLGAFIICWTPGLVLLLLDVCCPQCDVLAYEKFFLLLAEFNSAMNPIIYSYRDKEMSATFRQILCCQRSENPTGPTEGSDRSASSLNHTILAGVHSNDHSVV
T1 sequence (Q92633 whole entry): as above

B1: Antibody 1: Hybridoma-derived antibody against LPAR1; VH SEQ ID NO: 23, VL SEQ ID NO: 24 (antibody, V domains shown)
VH: QVQLQQSGAELARPGASVKLSCKASGYTFTSSGISWVKQRTGQGLEWIGEILPRSGYTNYNEKFKGKASLTADKSSSTAYMELRSLTSEDSAVYFCARDFGSSRYAMDYWSQGTSVTVSS
VL: SIVMTQTPKLLPVSAGDRVTMTCKASQSVRYNVAWYQQKPGQSPKLLIYYASNRYTGVPDRFTGSGSGTDFTFTVRSVQVEDLAVYFCQQHYNSPLTFGSGTKLELR
- competition for the same epitope (CHO-LPAR1 cells): compete for the same epitope

B2: Antibody 17: Optimised antibody; VH SEQ ID NO: 102, VL SEQ ID NO: 99 (antibody, V domains shown)
VH: QVQLVQSGSELKKPGASVKVSCKASGYTFTSSGISWVRQAPGQGLEWMGEIQPRSGYTNYNQGFTGRFVFSADKSVSTAYLQISSLKAEDTAVYYCARDKGPARYTMDYWGQGTTVTVSS
VL: SIQMTQSPSSLSASVGDRVTITCQASQSVRYNVAWYQQKPGKAPKLLIYYASNRYEGVPSRFSGSGSGTDFTFTISSLQPEDIATYFCQHHYSSPLTFGGGTKLEIK
- histological picrosirius staining [1]: No observable difference
- kidney hydroxyproline ([1]; BMS-986020 30 mg/kg oral vs vehicle, antibody 20 mg/kg (high) i.p. vs isotype antibody): significant reduction in hydroxyproline
- mean Cmax [2]: 143.8 µg/mL
- histopathology findings ([3]; 3 doses (Days 1, 8 and 15), two days after the third dose): no adverse findings
- adverse effects throughout the study [3, 6]: No adverse effects
- tolerability at the injection sites [3, 6]: well tolerated
- unscheduled deaths [3, 6]: no unscheduled deaths

B3: 63D8: Further hybridoma antibody specific to LPAR1; VH SEQ ID NO: 113, VL SEQ ID NO: 114 (antibody, V domains shown)
VH: EVKLLESGGGLVQPGGSLKLSCTASGFDFSRYWMSWVRQAPGKGLEWIGEINPSRSAINYSPSLKDKFIISRDNAKNTLYLQMSKVRSEDTALYYCARQGQRLRYGMDYWGQGTSVTVSS
VL: DIVMTQSPNFMSTSVGDRVSVTCRASQDVRTAVAWYQQKPGRSPKLLIYWTSTRHTGVPDRFTGSGSGTDYTLTISSVQAADLALYYCQQHYGTPLTFGAGTNLELK
- competition for the same epitope (CHO-LPAR1 cells): compete for the same epitope
- LPAR1 fixed cell staining (LPAR1 [4]): LPAR1-Significant fixed and live cell staining
- Irrelevant GPCR cell staining (Irrelevant GPCR): Irrelevant GPCR-No significant cell staining
- LPAR1 live cell staining (LPAR1 [5]): LPAR1-Significant fixed and live cell staining
